Laboratory results taken from the supplement of paper PMC10126150.
± gives the standard deviation of the averaged measurements.

System: ATP
Test: switch fluorescence ratio, 500 uM ATP over buffer (Cy3 cluster intensity, sum of 5 cycles each) (fold (ratio)); higher = stronger signal-on switching upon ATP binding; sequences stand for … in TCGTCGGCAGCGTCAGATGTGTATAAGAGACAGTTTTTTTTTTTTTTTTTTTTTTTTT…TC
Conditions: aptamer strand: ATP DNA aptamer (quencher-CACCTGGGGGAGTATTGCGGAGGAAGG + anchor), 100 nM annealed; ATP concentration: 500 uM
Method in brief: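 The quencher-labelled ATP aptamer, at 100 nM, was annealed to Cy3-labelled switching-strand clusters on a modified Illumina MiSeq flow-cell. The clusters were imaged in selection buffer, then after 15 min with 500 uM ATP at 22 °C, and this buffer/ATP cycle ran five times with NaOH stripping and re-annealing between runs. Per-cluster fluorescence ratios, summed target-cycle over summed buffer-cycle Cy3 intensity, were averaged per switch-domain sequence. Clusters outside 100-1000 RFU were excluded.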
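Also: ATP exposure 15 min at 22 °C before imaging.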

| Sequence | switch fluorescence ratio |
| --- | --- |
| AGTTGGGTAT | 1.02 ± 0.012 |
| AGGACCGGGT | 1.03 ± 0.021 |
| GGTATAGCAC | 1.07 ± 0.016 |
| TTGTCATCTG | 1.01 ± 0.012 |
| ATCTGTAAGG | 1.02 ± 0.043 |
| AGTGGGAAAG | 0.965 ± 0.027 |
| AAAGCTTCAT | 1.46 ± 0.088 |
| CGGGGGGGCC | 0.99 ± 0.042 |
| CGAGAGTTTT | 0.985 ± 0.032 |
| GACTAGGGGG | 1 ± 0.048 |
| CCACGTGGGC | 1.07 ± 0.14 |
| TTGGGTCATG | 1.036 ± 0.0048 |
| TTCGGCAATG | 1.39 ± 0.38 |
| GACAGCCTTA | 1.01 ± 0.0069 |
| CAAGCCAGTT | 0.9985 ± 0.0043 |
| GAAAAGGGGA | 1.27 ± 0.48 |
| GGGGTTAATG | 0.998 ± 0.028 |
| GGGGATAACG | 0.981 ± 0.012 |
| GCAGGGGGCC | 1.4 ± 0.63 |
| TTTATGGCGT | 1.008 ± 0.0097 |
| CAAATTAGGA | 0.9764 ± 0.0073 |
| TAGGCGTTGG | 0.972 ± 0.033 |
| TAAGACAGGG | 1.02 ± 0.028 |

| Sequence | switch fluorescence ratio |
| --- | --- |
| TGTCACTGTT | 0.965 ± 0.022 |
| CTGAGCGATG | 1.063 ± 0.0078 |
| GGGGGCCCGG | 1.03 ± 0.045 |
| GAAATTATCA | 0.977 ± 0.025 |
| GGCTCTGCTA | 1.11 ± 0.047 |
| GGAAATTGTG | 1.04 ± 0.052 |
| GGACTCCTAG | 0.995 ± 0.028 |
| CCACTTACGG | 1.6327 ± 0.00046 |
| AGAAGGGGCG | 1.02 ± 0.06 |
| AGGGTAATTA | 0.979 ± 0.029 |
| AGGGCGACCG | 1.07 ± 0.069 |
| CGCGGCGGTC | 1.02 ± 0.014 |
| AATTCCTATG | 1.04 ± 0.05 |
| TTGTAGCTGT | 1.12 ± 0.13 |
| GGACATTCGC | 1.04 ± 0.013 |
| TTTGCATCTC | 1.03 ± 0.044 |
| CCAGATATGG | 1.01 ± 0.041 |
| ATCTGACTCC | 2.52 ± 0.19 |
| GATGTGTCCG | 0.956 ± 0.086 |
| TTGTATATAT | 1.49 ± 0.81 |
| TTTTGGGATG | 0.978 ± 0.033 |
| GGTTTTAAAA | 0.99 ± 0.013 |
| CGGGGGTCGT | 0.98794 ± 0.00054 |

| Sequence | switch fluorescence ratio |
| --- | --- |
| AAGGAGGTCC | 0.97 ± 0.066 |
| TGAACTTAGT | 0.995 ± 0.02 |
| AGGGGGTTTC | 1 ± 0.022 |
| ATCTGATGCG | 0.981 ± 0.1 |
| TTACGGTAGG | 1.01 ± 0.075 |
| GCGGGGTCAG | 0.989 ± 0.025 |
| CGGGATCTGG | 0.977 ± 0.015 |
| TTTTTACGCA | 1.154 ± 0.0098 |
| AAATGCCACG | 1.06 ± 0.017 |
| ATCAGCCGGC | 0.99 ± 0.034 |
| TGCAAGGGTT | 1.12 ± 0.088 |
| TTTGGGGTCT | 1.01 ± 0.1 |
| TGTTTCGTGT | 0.982 ± 0.032 |
| TTATCATAGG | 1.01 ± 0.012 |
| ACAAGAATTA | 1.01 ± 0.055 |
| TTTTTATTTA | 0.991 ± 0.025 |
| TGGGTGTATC | 1.004 ± 0.0022 |
| TAGGGAGAGG | 0.9871 ± 0.0049 |
| GGGGGGTAAT | 1.01 ± 0.026 |
| TAGCGTGTTG | 1.02 ± 0.031 |
| AAAGGGTGCG | 1.03 ± 0.017 |
| GGAGCGATGG | 3.31 ± 1.2 |
| GATGCGTTCG | 1.01 ± 0.018 |

| Sequence | switch fluorescence ratio |
| --- | --- |
| AGTTCGGGGT | 1.02 ± 0.024 |
| CGGGTTGTCG | 1.02 ± 0.05 |
| GTTTCCAGGG | 1.16 ± 0.023 |
| TTTTTGCATA | 1.25 ± 0.26 |
| AGAGAGTTTT | 0.984 ± 0.021 |
| GAACATGTAT | 0.987 ± 0.026 |
| TGACACTTGG | 0.99 ± 0.011 |
| ATCGTTCTTT | 0.973 ± 0.027 |
| TCTTTAAAGG | 1.04 ± 0.039 |
| TGGGGGGTCA | 0.993 ± 0.02 |
| TGGTTTTCAG | 0.997 ± 0.015 |
| AGTTTAAGAT | 1.005 ± 0.0071 |
| CATAAAGGAG | 1.01 ± 0.016 |
| AACTTAAGGG | 1.003 ± 0.0092 |
| AGAATCCGGG | 0.97 ± 0.041 |
| TGAAAGGTGG | 1.04 ± 0.018 |
| TCAGGGGCGT | 1.0041 ± 0.00072 |
| TTTTGCGGAT | 1.04 ± 0.015 |
| ACGAGCGATT | 1.7 ± 0.058 |
| AGGGTTGTCG | 0.99 ± 0.023 |
| ATAATGTATC | 1.03 ± 0.018 |
| GAAGGGTAGC | 0.996 ± 0.037 |
| GTTAGGGGG | 1.02 ± 0.023 |

| Sequence | switch fluorescence ratio |
| --- | --- |
| ATTAGTGTTT | 0.976 ± 0.027 |
| ATGGGGGCAG | 1.03 ± 0.027 |
| GGCACAAAAG | 0.983 ± 0.019 |
| TTTGAGCTAT | 1.1 ± 0.029 |
| TGGTGGGTAC | 1.03 ± 0.084 |
| AGCGGTCCGG | 1 ± 0.058 |
| AGGTTTTTGT | 0.982 ± 0.036 |
| GTAAGGGGGG | 0.994 ± 0.028 |
| ACGAACTTGA | 1.19 ± 0.055 |
| GGGCCACCGA | 0.975 ± 0.0041 |
| GGTCTAGGTG | 1.2586 ± 0.00091 |
| CTTTATATAC | 1.35 ± 0.025 |
| GGAGAGGGAG | 0.9883 ± 0.0015 |
| ATTGGGGACT | 1.01 ± 0.019 |
| CATTTAATTC | 1.04 ± 0.014 |
| TGTTTTTTTG | 0.983 ± 0.041 |
| AGGCGGGTTG | 0.993 ± 0.026 |
| TGTTGTAGTG | 0.973 ± 0.017 |
| GTAAGGGGTT | 1.033 ± 0.0064 |
| TTAGAAGGTA | 0.995 ± 0.035 |
| TTGCTATCAG | 1 ± 0.047 |
| TTATTTTAGG | 0.988 ± 0.044 |
| TTATATGGAG | 0.979 ± 0.034 |

| Sequence | switch fluorescence ratio |
| --- | --- |
| GCCGTGTTGG | 1 ± 0.032 |
| TTTGGGGACT | 0.984 ± 0.011 |
| AGGTAATGTT | 1.01 ± 0.021 |
| TTCTTTCGAG | 1.026 ± 0.0045 |
| TGGTAGGGGT | 1 ± 0.014 |
| GAACCACGA | 1.05 ± 0.019 |
| CGGGAAGGTT | 1.08 ± 0.16 |
| TATTGGTCGG | 0.993 ± 0.036 |
| TTTTCGGGGG | 1 ± 0.04 |
| ACGGGTAATG | 1.01 ± 0.035 |
| CGTGTCGACA | 0.9631 ± 0.0068 |
| GGCGGGTCGG | 0.972 ± 0.029 |
| GACTTTTGGG | 1.01 ± 0.033 |
| ATACTATCTT | 0.996 ± 0.019 |
| TTACTGCGTA | 1.02 ± 0.015 |
| TCATGTCGGG | 1.005 ± 0.01 |
| GTTCCCGGGA | 1.028 ± 0.0024 |
| TATGTGACGA | 1 ± 0.026 |
| TTTAGATAGG | 0.98 ± 0.026 |
| TGACTTATGT | 1.014 ± 0.0037 |
| AGGGCCCTCG | 0.9898 ± 0.0036 |
| GCTTCGGGTT | 0.976 ± 0.028 |
| AGGAGACATA | 1 ± 0.021 |

| Sequence | switch fluorescence ratio |
| --- | --- |
| AAAATAATTA | 0.981 ± 0.012 |
| CCTGTTTTTA | 0.986 ± 0.024 |
| TGTGGGGGG | 0.951 ± 0.025 |
| CTACTAGAGC | 1.02 ± 0.044 |
| GATGTTGGGA | 0.989 ± 0.016 |
| GCTTAACGTA | 1.05 ± 0.044 |
| CGTAATTTCT | 1.06 ± 0.038 |
| GTTTACTTAG | 1.024 ± 0.005 |
| GCGCTAATGT | 1.08 ± 0.013 |
| TAGGTTTTTC | 1.02 ± 0.078 |
| GTTCGGAATT | 1.031 ± 0.0013 |
| TTATTGTGTG | 1 ± 0.023 |
| AGAAGATGTG | 0.973 ± 0.059 |
| CGGTTGTGAC | 0.994 ± 0.027 |
| ATCGAGAGGC | 1.06 ± 0.047 |
| CGGTCTGTTA | 1.04 ± 0.11 |
| GGGTGAGTGG | 1.01 ± 0.021 |
| GAACTGGCGC | 1.02 ± 0.096 |
| AGATTAGTTG | 1.016 ± 0.0039 |
